According to patent publication US20220396792, “METHOD FOR PRODUCING NUCLEIC ACID MOLECULE, BIOMATERIAL, AND METHOD FOR PRODUCING BIOMATERIAL” (NEC Solution Innovators, Ltd., published 2022):

B1: Aptamer 5 VEGF746CaP_R8m49 with 3' poly(dA)20 (ssDNA)
DNA: GGATTGCCCGATTCACCGTAAACGTTCTTACATTAGTTTAAAGTCACGTCTTAGTTTAATTAAGCATTCTGGAGCGGCATAACAAAAAAAAAAAAAAAAAAAA
B2: Aptamer 1 VEGF746CaP_R8m1 with 3' poly(dA)20 (ssDNA)
DNA: GGATTGCCCGATTCACCGTAAACAGTTCTGGTTCCTTAGTTTAAAGTCACGTCTTAGTTTAAGGCATTCTGGAGCGGCATAACAAAAAAAAAAAAAAAAAAAA
B3: Aptamer 2 VEGF746CaP_5s31 with 3' poly(dA)20 (ssDNA)
DNA: CCTTAGTTTAAAGTCACGTCTTAGTTTAAGGAAAAAAAAAAAAAAAAAAAA
B4: Aptamer 3 VEGF746CaP_5s49 with 3' poly(dA)20 (ssDNA)
DNA: CCGTAAACAGTTCTGGTTCCTTAGTTTAAAGTCACGTCTTAGTTTAAGGAAAAAAAAAAAAAAAAAAAA
B5: Aptamer 4 VEGF746CaP_5s62 with 3' poly(dA)20 (ssDNA)
DNA: TTCACCGTAAACAGTTCTGGTTCCTTAGTTTAAAGTCACGTCTTAGTTTAAGGCATTCTGGAAAAAAAAAAAAAAAAAAAAA

These binders were tested against T1, VEGF165 (UniProt P15692-4 P15692-4:27-191) (assay: SPR; 37 C, no Ca, 1 nM VEGF165). Conditions: tags: PeproTech 100-20; chain copies: 2.
T1 sequence (P15692 other isoform, or with tags, fused parts or gaps): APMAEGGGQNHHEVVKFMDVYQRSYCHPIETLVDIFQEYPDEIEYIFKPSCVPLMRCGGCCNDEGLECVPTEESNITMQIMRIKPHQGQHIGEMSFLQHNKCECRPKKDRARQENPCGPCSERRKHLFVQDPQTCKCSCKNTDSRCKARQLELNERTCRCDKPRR

Binder | binding result
B1 | binds
B2 | binds
B3 | binds
B4 | binds
B5 | binds

What follows are binders tested against T1, VEGF165 (assay: SPR; 25 C, SB1T pH 7.4, 1 mM MgCl2, 0.01% Tween 20). Conditions: tags: PeproTech 100-20; chain copies: 2.
Description: (§1) First, as a sensor chip designed specifically for the ProteOn, a streptavidin-immobilized chip (trade name: ProteOn NLC Sensor Chip, BioRad) was set in the ProteOn XPR36. 5 μmol/L biotinylated poly(dT) was injected to a flow cell of the sensor chip using ultrapure water (DDW), and the binding was allowed to proceed until the signal intensity (RU: Resonance Unit) was saturated. The biotinylated poly(dT) was prepared by biotinylating the 5′ end of 20-mer deoxythymidine. Then, each of the poly(dA)-added aptamers (200 nmol/L) was injected to the flow cell of the chip using an SB1T buffer at a flow rate of 25 μL/min for 80 seconds, and the binding was allowed to proceed until the signal intensity was saturated. Subsequently, each of the samples (5 nmol/L) was injected using an SB1T buffer at a flow rate of 50 μL/min for 300 seconds, followed by washing performed by flowing the SB1T buffer under the same conditions. With the time at which the injection was started being 0 seconds, the signal intensity after the sample injection was measured. The SPR was carried out at 25° C.
The pH of the SB1T buffer was 7.4.

Binder | Kd [nM]
CTTAGTTTAAAGTCACGTCTTAGTTTAAAAAAAAAAAAAAAAAAAAAA (ssDNA) [Aptamer 10 VEGF_L28_2 with 3' poly(dA)20] | 4170
TTAGTTTAAAGTCACGTCTTAGTTTAAAAAAAAAAAAAAAAAAAAA (ssDNA) [Aptamer 13 VEGF_L26_2 with 3' poly(dA)20] | 3.49
TTAGTTTAAAGTCACGTCTTAGTTTAAAAAAAAAAAAAAAAAAAAAA (ssDNA) [Aptamer 11 VEGF_L27_1 with 3' poly(dA)20] | 0.0276
CTTAGTTTAAAGTCACGTCTTAGTTTAAGAAAAAAAAAAAAAAAAAAAA (ssDNA) [Aptamer 8 VEGF_L29_1 with 3' poly(dA)20] | 0.0993
AGTTTAAAGTCACGTCTTAGTTTAAAAAAAAAAAAAAAAAAAA (ssDNA) [Aptamer 15 VEGF_L23_1 with 3' poly(dA)20] | 92.7
TAGTTTAAAGTCACGTCTTAGTTTAAAAAAAAAAAAAAAAAAAAA (ssDNA) [Aptamer 14 VEGF_L25_1 with 3' poly(dA)20] | 800
CTTAGTTTAAAGTCACGTCTTAGTTTAAGGAAAAAAAAAAAAAAAAAAAA (ssDNA) [Aptamer 6 VEGF_L30_1 with 3' poly(dA)20] | < 0.001
TTAGTTTAAAGTCACGTCTTAGTTTAAGAAAAAAAAAAAAAAAAAAAA (ssDNA) [Aptamer 9 VEGF_L28_1 with 3' poly(dA)20] | 0.0149
CCTTAGTTTAAAGTCACGTCTTAGTTTAAGAAAAAAAAAAAAAAAAAAAA (ssDNA) [Aptamer 7 VEGF_L30_2 with 3' poly(dA)20] | < 0.001
TAGTTTAAAGTCACGTCTTAGTTTAAAAAAAAAAAAAAAAAAAAAA (ssDNA) [Aptamer 12 VEGF_L26_1 with 3' poly(dA)20] | 0.0545

These binders were tested against VEGF121 (UniProt P15692-9 P15692-9:27-147) (assay: SPR; signal 0 or less, 5 nM, 25 C). Conditions: tags: PeproTech 100-20A; chain copies: 2.
Description: (§2) The analysis of the binding properties was carried out using a ProteOn XPR36 (BioRad) in accordance with its instructions for use.
as §1
(§3) The horizontal axis indicates the time (sec) elapsed after the start of the sample injection, and the vertical axis indicates the signal intensity (RU).

VEGF121, sequence (P15692 other isoform, or with tags, fused parts or gaps): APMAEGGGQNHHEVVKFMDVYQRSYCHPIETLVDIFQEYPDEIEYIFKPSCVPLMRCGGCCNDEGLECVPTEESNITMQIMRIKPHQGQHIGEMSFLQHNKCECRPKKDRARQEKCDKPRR

Binder | binding result
B1 | no binding
B2 | no binding
B3 | no binding
B4 | no binding
B5 | no binding

Each binder was assayed against BSA (bovine serum albumin) (Bos taurus, UniProt P02769 P02769:25-607) (assay: SPR; signal 0 or less, 5 nM, 25 C). Conditions: tags: Sigma A7906.
Description: as §2, §1, §3

BSA (bovine serum albumin), sequence (P02769 25-607, one chain of several): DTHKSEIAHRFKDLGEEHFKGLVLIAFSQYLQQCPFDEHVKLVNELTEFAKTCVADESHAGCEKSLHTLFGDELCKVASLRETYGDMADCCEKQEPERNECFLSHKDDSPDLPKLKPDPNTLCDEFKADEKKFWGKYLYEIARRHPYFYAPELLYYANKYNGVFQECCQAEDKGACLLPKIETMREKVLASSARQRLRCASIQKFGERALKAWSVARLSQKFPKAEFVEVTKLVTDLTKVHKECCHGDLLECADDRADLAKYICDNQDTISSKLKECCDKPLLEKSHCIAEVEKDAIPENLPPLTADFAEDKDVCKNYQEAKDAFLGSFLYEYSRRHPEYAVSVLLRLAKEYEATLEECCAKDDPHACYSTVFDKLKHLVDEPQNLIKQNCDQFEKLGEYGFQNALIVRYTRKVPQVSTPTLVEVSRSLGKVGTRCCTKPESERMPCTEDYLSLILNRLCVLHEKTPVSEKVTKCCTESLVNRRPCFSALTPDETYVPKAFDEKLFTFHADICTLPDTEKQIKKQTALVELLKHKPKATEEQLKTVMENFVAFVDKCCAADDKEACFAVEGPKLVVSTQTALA

Binder | binding result
B1 | no binding
B2 | no binding
B3 | no binding
B4 | no binding
B5 | no binding

These binders were tested against VEGF receptor (KDR/VEGFR2) (UniProt P35968 P35968:20-764) (assay: SPR; 5 nM receptor alone, 25 C; receptor binds aptamer-bound VEGF165). Conditions: tags: R&D Systems 357-KD-050/CF; chain copies: 2.
Description: The aptamers 1 to 5 were used as aptamers, and the VEGF sample and a VEGF receptor sample were used as samples. The VEGF receptor sample was prepared in the same manner as the VEGF sample, except that a VEGF receptor (R&D systems, Cat. No: 357-KD-050/CF) was used instead of the VEGF.
The analysis of binding properties by SPR was carried out in the following manner. First, biotinylated poly(dT) was bound to the sensor chip and each of the poly(dA)-added aptamers was then bound to the chip in the same manner as in Example 1. Subsequently, the 5 nmol/L VEGF sample was injected using an SB1T buffer at a flow rate of 50 μL/min for 240 seconds (first injection), followed by washing performed by flowing the SB1T buffer under the same conditions. Thereafter, the 5 nmol/L VEGF receptor sample was injected using an SB1T buffer at a flow rate of 50 μL/min for 240 seconds (second injection), followed by washing performed by flowing the SB1T buffer under the same conditions. With the time at which the first injection was started being 0 seconds, the signal intensity after the sample injection was measured. The SPR was carried out at 25° C. Also, analysis of binding properties by SPR was carried out in the same manner, except that the first and second injections were performed using the combinations shown in Table 1 below instead of the combination of the VEGF sample and the VEGF receptor sample.
FIGS. 8A to 8E are graphs respectively showing the binding properties of the aptamers 1 to 5 to the samples. […] The horizontal axis indicates the time (sec) elapsed after the start of the first injection, and the vertical axis indicates the signal intensity (RU).

VEGF receptor (KDR/VEGFR2), sequence (P35968 20-764, one chain of several): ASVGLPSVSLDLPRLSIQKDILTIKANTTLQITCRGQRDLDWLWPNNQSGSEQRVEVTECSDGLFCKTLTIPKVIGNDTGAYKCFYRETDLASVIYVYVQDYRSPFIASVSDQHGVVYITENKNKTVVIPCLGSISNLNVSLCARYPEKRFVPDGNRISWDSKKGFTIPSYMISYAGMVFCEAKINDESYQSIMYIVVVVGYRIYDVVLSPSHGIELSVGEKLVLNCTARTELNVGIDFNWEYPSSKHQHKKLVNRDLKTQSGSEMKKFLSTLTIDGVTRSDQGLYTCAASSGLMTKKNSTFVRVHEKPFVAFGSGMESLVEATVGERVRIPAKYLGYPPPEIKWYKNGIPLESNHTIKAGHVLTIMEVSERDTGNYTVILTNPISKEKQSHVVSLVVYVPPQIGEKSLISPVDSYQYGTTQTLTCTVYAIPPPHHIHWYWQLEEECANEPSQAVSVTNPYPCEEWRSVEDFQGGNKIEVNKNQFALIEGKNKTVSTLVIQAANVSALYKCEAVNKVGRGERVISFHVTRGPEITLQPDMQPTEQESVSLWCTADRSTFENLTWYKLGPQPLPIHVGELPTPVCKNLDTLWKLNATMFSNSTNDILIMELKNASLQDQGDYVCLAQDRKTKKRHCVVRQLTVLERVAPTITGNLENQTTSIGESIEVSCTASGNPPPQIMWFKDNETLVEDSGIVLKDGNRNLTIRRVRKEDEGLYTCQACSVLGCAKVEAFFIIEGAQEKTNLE

Binder | binding result
B1 | no binding
B2 | no binding
B3 | no binding
B4 | no binding
B5 | no binding
